Measurements from patent US20230212319A1, “NOVEL ANTIGEN BINDING DOMAINS AND SYNTHETIC ANTIGEN RECEPTORS INCORPORATING THE SAME” (University of Southern California, priority 2020, published 2023).

What was measured:
RAJI cells = assay: JNG assay, co-culture with RAJI cells; type: cell-based; conditions: JNG cells expressing construct, co-culture with Raji
Procedure, shortened: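 Read-out is NFAT-driven GFP measured by flow cytometry after ~4–18 h co-culture of SAR-expressing JNG cells with target cells (E:T about 1:2). SARs were introduced by lentiviral spinfection and selected with puromycin or blasticidin when possible; scores (+/- to 5+ ≈ 5–50% GFP+) are relative to parental JNG cells.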

RAJI-CD19-KO cells = assay: JNG assay, co-culture with RAJI-CD19-KO cells; type: cell-based; conditions: co-culture with Raji-CD19-KO
Protocol: Cellular supernatant is collected and assayed for the induction of cytokines (e.g., IL2).
JNG (Jurkat cells expressing EGFP under an NFAT promoter) were infected with lentiviral vectors encoding different single chain and multi-chain SARs by spinfection in the presence of 8 µg/ml of Polybrene® (Sigma, Catalog no. H9268). The Jurkat-NFAT-GFP cells are engineered in such a way that the IL-2 promoter, which carries NFAT binding sites, is cloned upstream of the GFP gene. These cells have been used to study signaling via TCR and CAR. The different SARs were stably expressed in Jurkat NFAT-GFP cells by lentiviral mediated gene transfer, followed by selection with puromycin or blasticidin. No drug selection was used in case the construct lacked an antibiotic resistance gene. The SAR-expressing Jurkat-NFAT-GFP cells were cocultured with the target cells at E:T ratio of approximately 1:2 for approximately 4 hours to 18 hours. When the interaction between SIRs and their target antigen results in activation of the NFAT pathway, GFP expression is induced. […] GFP expression was monitored by FACS analysis. The Jurkat-NFAT-GFP (parental) cells were used as control. The structure of different constructs can be determined based on their names. […] The sequence of the other constructs in the table can be similarly determined from their names and by referring to the different Tables of this disclosure that provide the names and SEQ ID NO of the different modules. Alternatively, the composition and modular architecture of the different SAR constructs can be determined from their sequences by bioinformatics tools, including using nucleic acid and amino acids homology searches. A SAR is considered positive in the assay in case the SAR expressing Jurkat-NFAT-GFP cells show greater % GFP positive cells when cultured with the target cell line as compared to parental Jurkat-NFAT-GFP cells. […] In general, the number +/-, +, 2+, 3+, 4+, 5+ refer to approximately 5%, 10%, 20%, 30%, 40% and 50% GFP positive cells. The % of GFP induction in the above assay is dependent not only the relative strength of the SAR but also, among other factors, on the relative level of expression of the SAR in the JNG cells and the relative level of expression of the target antigen in the target cell line. To control for the difference in gene transduction efficiency of the different SAR constructs, the experiment was conducted with JNG cells transduced with SAR constructs co-expressing a drug resistance gene (e.g., puromycin or PAC) followed by drug selection to generate a stable population of SAR-expressing cells. It is to be noted that the drug resistance gene (e.g., PAC) in the SAR constructs is optional and in vivo studies were conducted with SAR constructs lacking the PAC gene.

Molecule	NFAT-GFP ASSAY: Raji (RAJI cells)	NFAT-GFP ASSAY: Raji-CD19-KO (RAJI-CD19-KO cells)
22113 (protein) MALPVTALLLPLALLLHAARPDIQMTQSPSSLSASVGDRVTITCKASDHINNWLAWYQQKPGQAPKLLIYGATTLETGVPSRFSGSGSGTDYTLTISSLQPEDFATYYCQQSWNTPWTFGQGTKLEIKRLEDLKNVFPPEVAVFEPSKAEIAHTQKATLVCLATGFYPDHVELSWWVNGKEVHSGVCTDPQPLKEQPALNDSRYCLSSRLRVSATFWQNPRNHFRCQVQFYGLSENDEWTQDRAKPVTQIVSAEAWGRADCGITSASYHQGVLSATILYEILLGKATLYAVLVSALVLMAMVKRKDSRGRAKRSGSGATNFSLLKQAGDVEENPGPTSMDWIWRILFLVGAATGAHSGPQVQLQESGGGLAQAGGSLRLSCAASGRTFSMGWFRQAPGKEREFVAAITYSGGSPYYASSVRGRFTISRDNAKNTVYLQMNSLKPEDTAVYYCAANPTYGSDWNAENWGQGTQVTVSSGSGGGGSGGGGSGGGGSFEQVQLQQPGAELVKPGASVKMSCKASGYAFSSYWINWMKQKPGQGLEWIGQIYPGDGDTNYNGKFKGRATLTADTSSSTAYMQLSSLTSEDSAVYFCARSITTVVGCAMDYWGQGTSVTVSSTRIQNPDPAVYQLRDSKSSDKSVCLFTDFDSQTNVSQSKDSDVYITDKCVLDMRSMDFKSNSAVAWSNKSDFACANAFNNSIIPEDTFFPSSDVPCDVKLVEKSFETDTNLNFQNLSVIGFRILLLKVAGFNLLMTLRLWSSRAKRSGSGVKQTLNFDLLKLAGDVESNPGPSRGHMTEYKPTVRLATRDDVPRAVRTLAAAFADYPATRHTVDPDRHIERVTELQELFLTRVGLDIGKVWVADDGAAVAVWTTPESVEAGAVFAEIGPRMAELSGSRLAAQQQMEGLLAPHRPKEPAWFLATVGVSPDHQGKGLGSAVVLPGVEAAERAGVPAFLETSAPRNLPFYERLGFTVTADVEVPEGPRTWCMTRKPGA	5+ (refer to approximately 5%, 10%, 20%, 30%, 40% and 50% GFP positive cells)	4+ (refer to approximately 5%, 10%, 20%, 30%, 40% and 50% GFP positive cells)
22133 (protein) MALPVTALLLPLALLLHAARPEVQLVESGGGLVQPGGSLRLSCAASGFSFSDFWMSWVRQAPGKGLEWVATISQAGSEKDYVDSVKGRFTISRDNAKKSLYLQMNSLRAEDTAVYYCASGVYSFDYRGQGTLVTVSSGTGGGGSGGGGSGGGGSEFDIQMTQSPSSLSASVGDRVTITCKASDHINNWLAWYQQKPGQAPKLLIYGATTLETGVPSRFSGSGSGTDYTLTISSLQPEDFATYYCQQSWNTPWTFGQGTKLEIKRLEDLKNVFPPEVAVFEPSKAEIAHTQKATLVCLATGFYPDHVELSWWVNGKEVHSGVCTDPQPLKEQPALNDSRYCLSSRLRVSATFWQNPRNHFRCQVQFYGLSENDEWTQDRAKPVTQIVSAEAWGRADCGITSASYHQGVLSATILYEILLGKATLYAVLVSALVLMAMVKRKDSRGRAKRSGSGATNFSLLKQAGDVEENPGPTSATMDWIWRILFLVGAATGAHSGPQVQLQESGGGLAQAGGSLRLSCAASGRTFSMGWFRQAPGKEREFVAAITYSGGSPYYASSVRGRFTISRDNAKNTVYLQMNSLKPEDTAVYYCAANPTYGSDWNAENWGQGTQVTVSSGSGGGGSGGGGSGGGGSFEQVQLQQPGAELVKPGASVKMSCKASGYAFSSYWINWMKQKPGQGLEWIGQIYPGDGDTNYNGKFKGRATLTADTSSSTAYMQLSSLTSEDSAVYFCARSITTVVGCAMDYWGQGTSVTVSSTRIQNPDPAVYQLRDSKSSDKSVCLFTDFDSQTNVSQSKDSDVYITDKCVLDMRSMDFKSNSAVAWSNKSDFACANAFNNSIIPEDTFFPSSDVPCDVKLVEKSFETDTNLNFQNLSVIGFRILLLKVAGFNLLMTLRLWSSRAKRSGSGVKQTLNFDLLKLAGDVESNPGPSRGHMTEYKPTVRLATRDDVPRAVRTLAAAFADYPATRHTVDPDRHIERVTELQELFLTRVGLDIGKVWVADDGAAVAVWTTPESVEAGAVFAEIGPRMAELSGSRLAAQQQMEGLLAPHRPKEPAWFLATVGVSPDHQGKGLGSAVVLPGVEAAERAGVPAFLETSAPRNLPFYERLGFTVTADVEVPEGPRTWCMTRKPGA		5+ (refer to approximately 5%, 10%, 20%, 30%, 40% and 50% GFP positive cells)
22120 (protein) MALPVTALLLPLALLLHAARPDIQMTQSPSSLSASVGDRVTITCKASDHINNWLAWYQQKPGQAPKLLIYGATTLETGVPSRFSGSGSGTDYTLTISSLQPEDFATYYCQQSWNTPWTFGQGTKLEIKRLEGQPKANPTVTLFPPSSEELQANKATLVCLISDFYPGAVTVAWKADGSPVKAGVETTKPSKQSNNKYAASSYLSLTPEQWKSHRSYSCQVTHEGSTVEKTVAPTECSGRADCGFTSESYQQGVLSATILYEILLGKATLYAVLVSALVLMAMVKRKDSRGRAKRSGSGATNFSLLKQAGDVEENPGPTSATMDWIWRILFLVGAATGAHSGPQVQLQESGGGLAQAGGSLRLSCAASGRTFSMGWFRQAPGKEREFVAAITYSGGSPYYASSVRGRFTISRDNAKNTVYLQMNSLKPEDTAVYYCAANPTYGSDWNAENWGQGTQVTVSSGSGGGGSGGGGSGGGGSFEQVQLQQPGAELVKPGASVKMSCKASGYAFSSYWINWMKQKPGQGLEWIGQIYPGDGDTNYNGKFKGRATLTADTSSSTAYMQLSSLTSEDSAVYFCARSITTVVGCAMDYWGQGTSVTVSSTRASTKGPSVFPLAPSSKSTSGGTAALGCLVKDYFPEPVTVSWNSGALTSGVHTFPAVLQSSGLYSLSSVVTVPSSSLGTQTYICNVNHKPSNTKVDKRVEPKSCIPEDTFFPSPESSCDVKLVEKSFETDTNLNFQNLSVIGFRILLLKVAGFNLLMTLRLWSSRAKRSGSGVKQTLNFDLLKLAGDVESNPGPSRGHMTEYKPTVRLATRDDVPRAVRTLAAAFADYPATRHTVDPDRHIERVTELQELFLTRVGLDIGKVWVADDGAAVAVWTTPESVEAGAVFAEIGPRMAELSGSRLAAQQQMEGLLAPHRPKEPAWFLATVGVSPDHQGKGLGSAVVLPGVEAAERAGVPAFLETSAPRNLPFYERLGFTVTADVEVPEGPRTWCMTRKPGA	4+ (refer to approximately 5%, 10%, 20%, 30%, 40% and 50% GFP positive cells)	3+ (refer to approximately 5%, 10%, 20%, 30%, 40% and 50% GFP positive cells)
22112 (protein) MALPVTALLLPLALLLHAARPDIQMTQSPSSLSASVGDRVTITCKASDHINNWLAWYQQKPGQAPKLLIYGATTLETGVPSRFSGSGSGTDYTLTISSLQPEDFATYYCQQSWNTPWTFGQGTKLEIKRLEDLKNVFPPEVAVFEPSEAEISHTQKATLVCLATGFYPDHVELSWWVNGKEVHSGVCTDPQPLKEQPALNDSRYCLSSRLRVSATFWQNPRNHFRCQVQFYGLSENDEWTQDRAKPVTQIVSAEAWGRADCGFTSESYQQGVLSATILYEILLGKATLYAVLVSALVLMAMVKRKDSRGRAKRSGSGATNFSLLKQAGDVEENPGPTSATMDWIWRILFLVGAATGAHSGPEVQLVESGGGLVQAGGSLRLSCAASGRTFTMGWFRQAPGKEREFVAAISLSPTLAYYADSVKGRFTISRDNAKNTVVLQMNSLKPEDTALYYCAADRKSVMSIRPDYWGQGTQVTVSSGSGGGGSGGGGSGGGGSFEQVQLQQPGAELVKPGASVKMSCKASGYAFSSYWINWMKQKPGQGLEWIGQIYPGDGDTNYNGKFKGRATLTADTSSSTAYMQLSSLTSEDSAVYFCARSITTVVGCAMDYWGQGTSVTVSSTRIQNPDPAVYQLRDSKSSDKSVCLFTDFDSQTNVSQSKDSDVYITDKCVLDMRSMDFKSNSAVAWSNKSDFACANAFNNSIIPEDTFFPSPESSCDVKLVEKSFETDTNLNFQNLSVIGFRILLLKVAGFNLLMTLRLWSSRAKRSGSGVKQTLNFDLLKLAGDVESNPGPSRGHMTEYKPTVRLATRDDVPRAVRTLAAAFADYPATRHTVDPDRHIERVTELQELFLTRVGLDIGKVWVADDGAAVAVWTTPESVEAGAVFAEIGPRMAELSGSRLAAQQQMEGLLAPHRPKEPAWFLATVGVSPDHQGKGLGSAVVLPGVEAAERAGVPAFLETSAPRNLPFYERLGFTVTADVEVPEGPRTWCMTRKPGA		5+ (refer to approximately 5%, 10%, 20%, 30%, 40% and 50% GFP positive cells)
